Measured values from publication PMC11774035.

Target: T1, His6-Lrp (Klebsiella oxytoca MIT 09-7231) (UniProt A0A181XPK7)
T1 sequence: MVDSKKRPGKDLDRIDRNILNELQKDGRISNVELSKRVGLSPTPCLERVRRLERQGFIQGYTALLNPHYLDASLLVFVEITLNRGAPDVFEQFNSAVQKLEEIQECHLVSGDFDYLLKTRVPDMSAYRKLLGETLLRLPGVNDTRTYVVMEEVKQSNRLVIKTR
Assay: EMSA
Conditions: 40 mM HEPES ([…], room temperature 20 min

Sequence	binding
TCTCTCACTCGAAATTTAACAGGTTTTTCGTTTGTTTTTTAACAAAAAAGCGATGAGAAAGTGCTATTCCTTGTCTGTTTACTGGACATGAAAGACGATACGGTTTGCACAAATATTGCACGCCAATGAGTGCATTATGTCAATCAAAA (double strand) [aroX-npsA fragment 1]	no binding
TCTCTCCTGGAGAATTAGGAACGTTCACACGCATAAAATCTTCTCTTGAAGAAGAAATTAAAGATCTAAAGAAATGCCGCCAGCTTACCGTGAGATGCTTCTAAGAAAACACCGCAAAACAAGCAACATATAAGCAACACAAACATAACT (double strand) [aroX-npsA fragment 3]	no binding
